For this experiment, the target named is SNAP-GLP-1R (glucagon-like peptide-1 receptor with an N-terminal SNAP-tag) on HEK293-SNAP-GLP-1R cells (UniProt P43220). Nature of the experiment: FRET.

As usually defined, the Ki is a measure of affinity in units of concentration, obtained from inhibition or displacement. Low values mean a stronger hold on the target, high ones a looser hold on the target.

UniProt P43220, sequence (P43220 24-463): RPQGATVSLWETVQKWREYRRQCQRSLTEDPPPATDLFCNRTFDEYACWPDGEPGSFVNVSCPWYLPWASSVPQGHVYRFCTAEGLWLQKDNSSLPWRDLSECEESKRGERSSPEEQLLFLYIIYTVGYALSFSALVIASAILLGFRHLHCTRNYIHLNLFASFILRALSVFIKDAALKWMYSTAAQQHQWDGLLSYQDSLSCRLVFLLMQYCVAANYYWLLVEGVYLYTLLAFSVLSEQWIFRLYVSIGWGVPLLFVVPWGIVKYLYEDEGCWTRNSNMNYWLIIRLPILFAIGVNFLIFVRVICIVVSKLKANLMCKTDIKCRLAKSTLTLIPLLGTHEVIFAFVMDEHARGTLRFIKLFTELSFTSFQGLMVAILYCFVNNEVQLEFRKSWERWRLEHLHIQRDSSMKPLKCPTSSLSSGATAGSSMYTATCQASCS

The substance exendin-4 (from UniProt P26349 48-87) returned a Ki of 0.63 nM.

The substance “exendin-4-C16 (from UniProt P26349 48-87)” returned a Ki of 1.6 nM.

(Values after doi:10.1101/2021.04.01.438030.)
